These results are taken from patent US20250313643A1 (UNM RAINFOREST INNOVATIONS, published 2025).

Positions count from the first letter of the chain named.

In assay [1] the target is T1, human CCKBR extracellular peptide (human, UniProt P32239 39-53).
T1 construct: domain: extracellular fragment of human CCK-BR; also called human peptide; human CCKBR peptide
Put plainly: ELISA affinity measurement. A general note: ELISA stands for enzyme-linked immunosorbent assay.

In assay [2] the target is T1, human CCKBR extracellular peptide. Briefly: indirect ELISA on human CCKBR peptide, OD450nm against nM scFv; column head 'Apparent kD (nM)'.
Assay [3] shares this target. Briefly: Assay and target are not stated on the sheet. The Kd stands in the legend box of an in vivo plot. The text describes affinity measurement of the humanized variants against the human peptide.
A further assay has as its target T2, CCKBR peptide.
T2 construct: It may be the same as m3 or m4; also called target CCKBR peptide; target peptide (immunization and selection)
T2 peptide: CETPRIRGTGTRELE
Put plainly: ELISA (panel 'Binding Affinity by ELISA'), OD450nm against nM scFv. The coated peptide is not named in the panel.

B1: scFv77-2 hu HC2-LC3 (scFv)
scFv: MAQVQLVQSGAEVKKPGASVKVSCKASGFNIKDYYIHWVRQAPGQGLEWIGWIDPENGDTEYAPKFQGRATMTADTSISTAYMELSRLRSDDTAVYYCNAGGRFAYWGQGTLVTVSSGGGGSGGGGSGGGGSDIQMTQSPSTLSASVGDRVTITCKSSQSLLNSGNQKNYLAWYQQKPGKAPKLLIYGASTRESGVPSRFSGSGSGTEFTLTISSLQPDDFATYYCQNDHSYPYTFGGGTKVEIKENLYFQGAAALEHHHHHH
notes: also called humanized CCKBR scFv HC2-LC3; CCKBR hscFv HC2-LC3
As to B1, the “fold improvement in affinity compared with parental mscFv77-2” value in assay [1] is above 25 fold. For the same molecule, the values for the Kd in assay [2] and in assay [3] were 4.3 nM and 3.1 nM, respectively.

B2: HC2-LC2 (scFv)
scFv (VH-linker-VL, with protease site and His tag): B1 scFv with T142S, E208D, D219E, V242L
notes: also called scFv77-2 hu HC2-LC2; scFv77-2 hu HC2-linker-LC2
As to B2, the Kd in assay [3] amounted to 9.8 nM.

B3: mscFv77-2 Parental (scFv, V domains shown)
VH: EVQLQQAGAELVRSGASVKLSCTASGFNIKDYYIHWVKQRPEQGLEWIGWIDPENGDTEYAPKFQGKATMTADTSSNTAYLQLSSLTSEDTAVYYCNAGGRFAYWGQGTLVTVSA
VL: DIVMTQSPSSLSVSAGEKVTMSCKSSQSLLNSGNQKNYLAWYQQKPGQPPKLLIYGASTRESGVPDRFTGSGSGTDFTLTISSVQAEDLAVYYCQNDHSYPYTFGGGTKLEIK
notes: Murine single-chain Fv; It has a kappa light chain; also called murine parent scFv; parental scFv
For the molecule B3, the Kd in assay [2] turned out to be 109 nM; in the assay with CCKBR peptide it was 195 nM.
